For the experiment, the target named is T1, TnMUC1 (aberrantly glycosylated Tn glycoform of MUC1) as expressed by tumor cells (human, UniProt P15941 24-1255, Tn (GalNAca1-O-Ser/Thr) glycans; sites not stated).
T1 construct: whole, on cells; One molecule is used for all TnMUC1-positive target cells; In the IHC of breast tumor tissue the staining was cytoplasmic and/or membranous; also called TnMUC1 antigen; TnMUC1+ target cells (Jurkat E6-1, Hs766T, MCF7, breast cancer cell lines and tissue)
The experiment in a line: immunohistochemistry on breast cancer tissue.

T1 sequence (P15941 24-1255): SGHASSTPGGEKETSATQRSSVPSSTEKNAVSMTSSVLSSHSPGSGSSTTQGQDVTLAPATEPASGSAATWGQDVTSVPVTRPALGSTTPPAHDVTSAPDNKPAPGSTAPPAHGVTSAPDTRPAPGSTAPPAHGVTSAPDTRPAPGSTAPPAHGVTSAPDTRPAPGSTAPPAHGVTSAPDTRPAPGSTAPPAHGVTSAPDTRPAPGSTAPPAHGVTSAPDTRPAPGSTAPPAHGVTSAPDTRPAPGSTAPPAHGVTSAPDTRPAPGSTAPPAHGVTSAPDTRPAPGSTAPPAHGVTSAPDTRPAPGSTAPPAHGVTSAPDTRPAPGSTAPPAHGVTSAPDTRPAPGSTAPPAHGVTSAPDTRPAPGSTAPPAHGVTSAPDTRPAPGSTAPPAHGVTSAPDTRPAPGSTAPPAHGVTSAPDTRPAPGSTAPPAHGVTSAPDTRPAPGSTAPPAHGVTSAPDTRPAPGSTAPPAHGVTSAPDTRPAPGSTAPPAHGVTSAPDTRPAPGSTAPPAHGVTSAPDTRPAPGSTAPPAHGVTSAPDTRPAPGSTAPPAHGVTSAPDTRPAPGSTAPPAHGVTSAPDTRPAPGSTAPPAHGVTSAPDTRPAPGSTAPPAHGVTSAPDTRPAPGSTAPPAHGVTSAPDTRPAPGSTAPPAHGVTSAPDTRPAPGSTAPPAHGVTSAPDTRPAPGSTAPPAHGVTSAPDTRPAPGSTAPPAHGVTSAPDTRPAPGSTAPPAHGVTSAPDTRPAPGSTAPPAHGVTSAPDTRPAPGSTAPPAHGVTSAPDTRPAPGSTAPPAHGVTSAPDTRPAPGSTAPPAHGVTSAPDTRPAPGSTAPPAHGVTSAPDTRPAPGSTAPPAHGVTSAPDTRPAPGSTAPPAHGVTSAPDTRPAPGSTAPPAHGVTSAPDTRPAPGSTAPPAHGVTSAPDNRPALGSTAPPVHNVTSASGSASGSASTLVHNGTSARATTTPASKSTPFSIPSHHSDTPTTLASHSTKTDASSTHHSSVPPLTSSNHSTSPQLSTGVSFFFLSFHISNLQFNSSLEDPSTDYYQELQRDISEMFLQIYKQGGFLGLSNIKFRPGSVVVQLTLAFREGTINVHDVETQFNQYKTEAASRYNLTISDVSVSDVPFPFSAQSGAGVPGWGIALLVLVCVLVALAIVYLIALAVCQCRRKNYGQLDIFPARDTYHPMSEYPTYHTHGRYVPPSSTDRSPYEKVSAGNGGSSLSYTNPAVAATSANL

B1: Anti-TnMUC1 murine monoclonal antibody clone 5E5 (antibody, V domains shown)
VH: QVQLQQSDAELVKPGSSVKISCKASGYTFTDHAIHWVKQKPEQGLEWIGHFSPGNTDIKYNDKFKGKATLTVDRSSSTAYMQLNSLTSEDSAVYFCKTSTFFFDYWGQGTTLTVSS
VL: ELVMTQSPSSLTVTAGEKVTMICKSSQSLLNSGDQKNYLTWYQQKPGQPPKLLIFWASTRESGVPDRFTGSGSGTDFTLTISSVQAEDLAVYYCQNDYSYPLTFGAGTKLELK
notes: also called 5E5 mAb; mAb 5E5
In the case of B1, the binding result is “binds”.
